This note sets out measurements from patent US20050064533A1 (ADELAIDE RESEARCH AND INNOVATION, published 2005).

The target in experiment [1] is recombinant MBP (Maltose Binding Protein) alone, negative control (UniProt P0AEX9 27-392 = MBP). Kind of experiment: pulldown on amylose-agarose resin, autoradiography. Here is the method: (§1) FIG. 8. […] The CAD containing C-terminal 100 amino acids of HIF-2a was in vitro translated in the presence of ³⁵S-methionine. […] The resin mixtures were washed before the pulled down proteins were analysed by SDS-PAGE and autoradiography. Lanes 1-3 show 10% of the input translation mixtures.
(§2) Samples were centrifuged 1500 rpm, 30 secs (room temp) to pellet resin, and the supernatant discarded. Resin was then washed three times with 1 ml of the binding buffer. […] After centrifuging 30 secs/1500 rpm, 30 ul of the supernatant was separated by electrophoresis through a 12.5 % polyacrylamide gel. The gel was dried and exposed to autoradiography.

Experiment [2] addresses T1, MBP (maltose binding protein) fused to wild type HIF Asparagine Hydroxylase (HNH) (UniProt Q9NWT6 1-349).
T1 construct: also called MBP-HNH; MBP/FIH-1
The experiment can be described thus: pulldown on amylose-agarose resin, autoradiography. How it is done:
as §1, §2

T1 sequence (Q9NWT6 whole entry, the tested form may be a part): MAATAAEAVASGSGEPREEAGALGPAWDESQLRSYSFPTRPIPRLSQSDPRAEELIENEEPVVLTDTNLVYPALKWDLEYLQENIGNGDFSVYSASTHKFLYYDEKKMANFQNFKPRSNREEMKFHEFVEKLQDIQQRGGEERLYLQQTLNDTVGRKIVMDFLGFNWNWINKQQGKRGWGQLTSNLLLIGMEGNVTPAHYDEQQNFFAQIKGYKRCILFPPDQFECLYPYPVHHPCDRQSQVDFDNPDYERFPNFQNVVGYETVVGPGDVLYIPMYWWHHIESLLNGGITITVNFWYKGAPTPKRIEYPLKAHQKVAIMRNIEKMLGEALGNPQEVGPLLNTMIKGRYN

B1: C-terminal 100 amino acids of mouse HIF-2a (775-874), wild type, with N-terminal thioredoxin/6-histidine tag (other)
chain: RGLGQPLRHLPPPQPPSTRSSGENAKTGFPPQCYASQFQDYGPPGAQKVSGVASRLLGPSFEPYLLPELTRYDCEVNVPVPGSSTLLQGRDLLRALDQAT
modifications: in vitro translated in the presence of 35S-methionine (radiolabelled Met)
notes: range 775-874; also called HIF-2a CAD; wild type CAD; not shown: N-terminal thioredoxin/6-histidine tag supplied by the pET32 vector
As to B1, the binding result in experiment [1] is listed as “no binding”.

B2: C-terminal 100 amino acids of mouse HIF-2a (775-874), mutant RLL to AAA, with N-terminal thioredoxin/6-histidine tag (other, UniProt P97481 775-874, looked up)
chain: RGLGQPLRHLPPPQPPSTRSSGENAKTGFPPQCYASQFQDYGPPGAQKVSGVASAAAGPSFEPYLLPELTRYDCEVNVPVPGSSTLLQGRDLLRALDQAT
modifications: in vitro translated in the presence of 35S-methionine (radiolabelled Met)
notes: range 775-874; also called RLL to AAA triple mutant CAD; not shown: N-terminal thioredoxin/6-histidine tag supplied by the pET32 vector
For the molecule B2, the binding result in experiment [2] and in experiment [1] was “no binding” in each case.

B3: C-terminal 100 amino acids of mouse HIF-2a (775-874), mutant N851A, with N-terminal thioredoxin/6-histidine tag (other)
chain: RGLGQPLRHLPPPQPPSTRSSGENAKTGFPPQCYASQFQDYGPPGAQKVSGVASRLLGPSFEPYLLPELTRYDCEVAVPVPGSSTLLQGRDLLRALDQAT
modifications: in vitro translated in the presence of 35S-methionine (radiolabelled Met)
notes: range 775-874; also called N851A point mutant CAD; not shown: N-terminal thioredoxin/6-histidine tag supplied by the pET32 vector
As to B3, the binding result in experiment [1] is reported as “no binding”.
